Reference: US20240124553A1 (WASHINGTON UNIVERSITY, published 2024)

Biological target: T1, Mayaro virus (MAYV) structural proteins on infected cells (Mayaro virus)
T1 construct: whole, on cells
Assay: flow cytometry, surface staining of MAYV-infected Vero cells with serial dilutions, % binding to infected cells

B1: Mxra8-Fc (extracellular domain of mouse Mxra8 fused to mouse IgG2b Fc) (Fc fusion)
chain: SGPSGTAAASSSLVSESVVSLAAGTQAVLRCQSPRMVWTQDRLHDRQRVVHWDLSGGPGSQRRRLVDMYSAGEQRVYEPRDRDRLLLSPSAFHDGNFSLLIRAVDRGDEGVYTCNLHHHYCHLDESLAVRLEVTEDPLLSRAYWDGEKEVLVVAHGAPALMTCINRAHVWTDRHLEEAQQVVHWDRQLPGVSHDRADRLLDLYASGERRAYGPPFLRDRVSVNTNAFARGDFSLRIDELERADEGIYSCHLHHHYCGLHERRVFHLQVTEPAFEPPARASPGNGSGHSSAPSPDPTLTRGHSIINVIVPEDHTHPSGPISTINPCPPCKECHKCPAPNLEGGPSVFIFPPNIKDVLMISLTPKVTCVVVDVSEDDPDVQISWFVNNVEVHTAQTQTHREDYNSTIRVVSTLPIQHQDWMSGKEFKCKVNNKDLPSPIERTISKIKGLVRAPQVYILPPPAEQLSRKDVSLTCLVVGFNPGDISVEWTSNGHTEENYKDTAPVLDSDGSYFIYSKLNMKTSKWEKTDSFSCNVRHEGLKNYYLKKTISRSPGK
notes: also called mMxra8-Fc; mouse Mxra8-Fc
EC50 (read off the curve): ~3 ng/mL
